Kd data for one substance are collected here from doi:10.1101/2025.03.20.644192.

For the assay, the target named is Chicken CapZ complex, full length α/β (chicken) (UniProt P13127). The assay is described as follows: ITC. (In general: ITC needs no label: the signal is the heat of the interaction.)

Substance “RavB, full length, untagged (RavB^WT) (natural protein)” gave a Kd of 10.8 nM.

By Kd is commonly meant the equilibrium constant for the complex coming apart.
